The source of these data is article PMC9391379, “Ferritin-mediated iron detoxification promotes hypothermia survival in Caenorhabditis elegans and murine neurons” (Nature Communications, 2022).

Where a chain is given by its changes, count along the chain named. Numbers in names are those of the source.

This data set concerns the molecule itself. Nature of the data set: native gel or EMSA; recombinant FTN variants (2 µg) resolved on a 4–16% gradient NativePAGE Bis-Tris gel, Coomassie Blue stained; NativeMark standard for the size of complexes; self-assembly into high molecular weight complexes.

B1: C. elegans ferritin FTN-2, recombinant, untagged, wild type (natural protein, UniProt Q9TYS3 1-170, looked up)
chain: MSLARQNYHSEVEAAVNKQINIELYASYVYLSMSFYFDRDDVALPNIAKFFKEQSDEEREHATELMRVQNLRGGRVVLQDIQKPENDEWGTALKAFEAALALEKFNNESLLKLHSTAGNHNDAHLTDFIEEKYLDEQVKSINEFARMVANLKRVGPGVGEYVFDKEHFSD
notes: FTN-2, C. elegans ferritin; ORF amplified from C. elegans cDNA and cloned between NcoI and NotI of pET28a; expressed without a tag; also called FTN-2 wt; source: E. coli BL21-CodonPlus (DE3)-RIPL, purified (heat step, acid precipitation, cation exchange)
In the case of B1, the binding result is given as “binds”.

B2: C. elegans ferritin FTN-2 E58K/H61G (FeOx-mut), recombinant, untagged (natural protein, UniProt Q9TYS3 1-170, looked up)
chain: B1 chain with E58K, H61G
notes: FTN-2, C. elegans ferritin; ORF in pET28a with the E58K/H61G double mutation made by site-directed mutagenesis; expressed without a tag; also called FTN-2 FeOx-mut; E58K/H61G-mutated FTN-2; source: E. coli BL21-CodonPlus (DE3)-RIPL, purified (heat step, acid precipitation, cation exchange)
Take B2: the binding result was “binds”.

B3: C. elegans ferritin FTN-1, recombinant, untagged, wild type (natural protein, UniProt O16453 1-170, looked up)
chain: MSLARQNYHDEVEAAVNKQINVELYASYVYLSMSAHFDRDDIALRNIAKFFKEQSDEERGHATELMRIQAVRGGRVAMQNIQKPEKDEWGTVLEAFEAALALERANNASLLKLHGIAEQRNDAHLTNYIQEKYLEEQVHSINEFARYIANIKRAGPGLGEYLFDKEEFSD
notes: FTN-1, C. elegans ferritin; ORF amplified from C. elegans cDNA and cloned between NcoI and NotI of pET28a; expressed without a tag; also called FTN-1 wt; source: E. coli BL21-CodonPlus (DE3)-RIPL, purified (heat step, acid precipitation, cation exchange)
Regarding B3, the binding result is on record as “binds”.

B4: C. elegans ferritin FTN-1 E58K/H61G (FeOx-mut), recombinant, untagged (natural protein, UniProt O16453 1-170, looked up)
chain: B3 chain with E58K, H61G
notes: FTN-1, C. elegans ferritin; ORF in pET28a with the E58K/H61G double mutation made by site-directed mutagenesis; expressed without a tag; also called FTN-1 FeOx-mut; E58K/H61G-mutated FTN-1; source: E. coli BL21-CodonPlus (DE3)-RIPL, purified (heat step, acid precipitation, cation exchange)
On to B4, for which the binding result was “binds”.
